The subject of this data set is hnRNP A1 (endogenous) ((SF268 cells)). The experiment in a line: pull-down, competition, immunoblot. The conditions noted are these: biotin-16-UTP incorporated; 5 mM HEPES pH 7.1, 40 mM KCl, 0.1 mM EDTA, 2 mM MgCl2, 2 mM DTT, RNasin, 0.25 mg/ml heparin; 200 ug SF268 extract, 3 ug RNA, 100 ul; 15 min 30 C, then beads ….

As to EV71 5'UTR, the binding signal (% reduction of bound hnRNP A1) was 73.
Turning to EV71 SL-II, the binding signal (% reduction of bound hnRNP A1) amounted to 80.

Source of the values: paper PMC4117571.
